Among the data in PMC2872913 are fold weaker affinity against MBD not phosphorylated by aurora A values, retold here.

In the assay the target is taxol-stabilized microtubules. Description: co-sedimentation.

For “p150^glued MBD-(His)6 after incubation with aurora A protein kinase and ATP (domain or fragment)”, the fold weaker affinity against MBD not phosphorylated by aurora A worked out at 5 fold.
